Measurements reported in patent US20160137713A1 (HANALL BIOPHARMA, published 2016).

Columns and labels:
soluble human FcRn = biological target: T1, soluble human FcRn (human, UniProt P55899 24-297; P61769 21-119); assay: SPR, shFcRn immobilised, pH 6.0
T1 construct: extracellular domain;mature; Non-covalent heterodimer secreted by 293 cells, purified on IgG Sepharose; also called shFcRn; soluble FcRn
Description: Measurement of the binding ability of antibody by SPR was performed by immobilizing shFcRn as a ligand onto a Proteon GLC chip (Bio-Rad) and measuring affinity.
The analysis of ligand and analyte was performed using a Proteon GLC chip, and the interaction was analyzed at a pH of 6.0 and a pH of 7.4. Immobilization of the ligand was activated by injecting a 1:1 mixture of 1×EDAC (EDC) and 1× Surfo-NHS for 5 minutes. shFcRn was diluted in 10 mM sodium acetate (pH 4.5) at a concentration of 25 μg/ml and added to the ligand at a flow rate of 30 μl/min for 5 minutes. […] The analyte antibody was allowed to flow on the immobilized chip at a flow rate of 30 μl/min. […] The association time of the analyte antibody was 240 seconds, and the dissociation time was 600 seconds. Regeneration of the chip was performed by injecting 10 mM glycine (pH 2.5) at a flow rate of 100 μl/min for 18 seconds. Based on sensorgrams resulting from six concentrations of the analyte, kinetics analysis was performed using Proteon XPR36 software.

[1] = biological target: T2, mouse FcRn on 3T3-L1 cells (mouse, UniProt Q61559 22-365; P01887 21-119); assay: FACS on mouse FcRn-expressing 3T3-L1 cells at pH 6.0 and pH 7.4, FITC anti-human IgG goat antibody; MFI relative to hIgG
T2 construct: whole, on cells; also called NIH3T3L1
T2 sequence (looked up): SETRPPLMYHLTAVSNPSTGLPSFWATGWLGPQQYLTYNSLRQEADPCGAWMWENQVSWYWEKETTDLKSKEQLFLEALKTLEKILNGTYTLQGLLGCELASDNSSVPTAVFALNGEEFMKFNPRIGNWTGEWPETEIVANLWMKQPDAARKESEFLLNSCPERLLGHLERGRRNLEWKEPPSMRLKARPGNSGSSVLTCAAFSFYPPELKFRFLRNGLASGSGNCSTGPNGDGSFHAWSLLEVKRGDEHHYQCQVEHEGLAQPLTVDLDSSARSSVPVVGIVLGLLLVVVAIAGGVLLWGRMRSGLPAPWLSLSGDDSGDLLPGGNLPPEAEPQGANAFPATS
T2 sequence (b2m, looked up): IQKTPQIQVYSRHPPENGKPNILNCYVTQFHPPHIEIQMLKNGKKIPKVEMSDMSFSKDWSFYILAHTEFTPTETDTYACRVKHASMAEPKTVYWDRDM
Description: 3T3-L1 cells stably expressing mouse FcRn were cultured in 10% FCS DMEM medium, and then detached from the culture plate by trypsin treatment. The cells were washed three times with cold binding buffer (PBS, pH 6.0 10 mM EDTA), and then diluted in binding buffer at a concentration of 10⁵ cells/ml. 100 μl of the cell dilution was dispensed into each 1.5-ml tube in such a manner that each tube contained 10⁴ cells, and 1 μl of HL161 antibody (1 mg/ml) was added to the dispensed cells. Next, the cells were incubated on ice. As control antibodies, 1 μl of each of rabbit antibody (Santacruz, sc-66893) and human IgG (Abcam, cat#. 409120), which bind to mouse FcRn, was used. The cells were recovered by centrifugation at 4° C. and 4000 rpm for 5 minutes, after which the cells were washed once with binding buffer and resuspended in 100 μl of binding buffer. As FITC-conjugated secondary antibody, 1 μl of anti-human IgG goat antibody (Invitrogen, Cat*. A11013) was added to the cells. In the case of the experiment using anti-mouse FcRn rabbit antibody, the anti-rabbit antibody was incubated with the cells on ice for 1 hour, and then the cells were recovered by centrifugation at 4° C. and 700 g for 5 minutes, washed once with binding buffer, resuspended in 400 ul of binding buffer and analyzed by FACS to examine the cross-reactivity of the HL161 antibodies with mouse FcRn (see FIG. 4). An experiment at a pH of 7.4 was performed using binding buffer at a pH of 7.4 in the same manner as the experiment using binding buffer at a pH of 6.0. The degree of the binding of each antibody to mouse FcRn was presented as relative MFI based on human IgG.

[2] = biological target: T3, human FcRn on HEK293 cells (human, UniProt P55899 24-365; P61769 21-119); assay: FACS competition on hFcRn HEK293 cells at pH 6.0; remaining binding of 100 nM Alexa488-labeled hIgG1 (m14) with 250 nM competitor antibody, percent of the tube without competitor
T3 construct: whole, on cells; also called hFcRn
Description: (§1) In stable HEK293 cells expressing human FcRn, the blocking of the antibody against FcRn was analyzed by FACS. The antibody was diluted in binding buffer (PBS pH 6.0, 10 mM EDTA) at concentrations of 2,000 nM, […] to make 50 μl of dilutions, which were dispensed into tubes. […] Stable HEK293 cells were diluted in binding buffer at a concentration of 2,500,000 cells/ml, and 40 μl of the cell dilution was added to each of the labeled antibody-containing tubes. Thus, a final volume of 100 μl contained 100,000 cells, 100 nM labeled antibody and 1000 nM, 500 nM or 250 nM competitor antibody. The cells were washed once with 150 μl of buffer (pH 6.0), and pellets were obtained therefrom and resuspended in 150 μl of buffer having pH difference. The suspension was transferred into a tube for FACS analysis. The cells were analyzed by FACS using BD FACSDiva™ v6.1.3 software (BD Bioscience). The results of the analysis were expressed as mean fluorescence intensity (MFI).
(§2) The MFI of the test group was processed after subtracting the MFI (background signal) measured in cells alone.

[3] = biological target: T3, human FcRn on HEK293 cells; assay: FACS competition on hFcRn HEK293 cells at pH 6.0; remaining binding of 100 nM Alexa488-labeled hIgG1 (m14) with 500 nM competitor antibody, percent of the tube without competitor
Description: as §1, §2

[4] = biological target: T3, human FcRn on HEK293 cells; assay: FACS competition on hFcRn HEK293 cells at pH 6.0; remaining binding of 100 nM Alexa488-labeled hIgG1 (m14) with 1000 nM competitor antibody, percent of the tube without competitor
Description: as §1, §2

T3 sequence (P55899 24-365, chain 1 of 2): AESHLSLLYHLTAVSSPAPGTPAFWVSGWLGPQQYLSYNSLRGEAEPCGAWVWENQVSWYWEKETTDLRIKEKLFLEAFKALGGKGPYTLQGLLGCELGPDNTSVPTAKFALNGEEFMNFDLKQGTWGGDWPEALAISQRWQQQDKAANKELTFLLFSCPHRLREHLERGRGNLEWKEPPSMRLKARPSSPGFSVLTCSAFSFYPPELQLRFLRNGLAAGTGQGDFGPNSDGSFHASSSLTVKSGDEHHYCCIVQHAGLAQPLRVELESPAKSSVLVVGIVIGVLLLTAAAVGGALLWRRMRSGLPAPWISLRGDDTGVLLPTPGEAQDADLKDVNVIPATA
T3 sequence (P61769 21-119, chain 2 of 2): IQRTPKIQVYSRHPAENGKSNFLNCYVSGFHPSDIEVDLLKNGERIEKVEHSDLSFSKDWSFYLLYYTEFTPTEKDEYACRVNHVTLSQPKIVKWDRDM
T1 sequence (P55899 24-297, chain 1 of 2): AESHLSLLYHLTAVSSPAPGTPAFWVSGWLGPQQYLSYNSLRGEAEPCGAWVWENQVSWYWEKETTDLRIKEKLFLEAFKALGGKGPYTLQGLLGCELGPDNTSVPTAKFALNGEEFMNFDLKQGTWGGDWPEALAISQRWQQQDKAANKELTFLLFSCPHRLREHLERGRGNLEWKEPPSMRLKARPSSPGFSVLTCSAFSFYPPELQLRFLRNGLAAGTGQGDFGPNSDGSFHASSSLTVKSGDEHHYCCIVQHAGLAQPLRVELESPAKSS
T1 sequence (P61769 21-119, chain 2 of 2): as the sequence (P61769 21-119, chain 2 of 2) above

B1: HL161-11H (antibody, V domains shown)
VH: QMQLVESGGGLVQPGRSLRLSCAASGFTFSSYAMHWVRQAPGKGLEWVAVISYDGSNKYYADSVKGRFTISRDNSKNTLYLQMNSLRSEDTAVYYCSRGSGGRDAFDVWGQGTMITVSS
VL: DIQMTQSPSTLSASVGDRVTITCRASQSISSRLAWYQQKPGKAPKLLIYKASSLETGVPSRFSGSGSGTEFTLTISSLQPDDFATYYCQQTNSFPLTFGGGTKVEIK
notes: Whole human IgG from pNATAB vectors
Soluble human FcRn
  koff: 0.00034 s⁻¹
  kon: 970000 M⁻¹ s⁻¹
[1]
  binding result: no binding
[2]
  Relative MFI(%) at 250nM: 75.4%
[3]
  Relative MFI(%) at 500nM: 60.4%
[4]
  Relative MFI(%) at 1000nM: 51.8%
